For orientation: Kd means the equilibrium constant for the complex coming apart. The term koff denotes a measure of how fast the partners let go of each other. For orientation: kon means the rate constant with which the complex forms.

Drawing on patent US20220213181A1 (Novartis, published 2022), this text covers Kd, koff and kon for 1 molecule.

In test [1] the target is T1, Human ANGPTL3(17-460)-FLAG-His-Avi (human, UniProt Q9Y5C1 17-460, biotin on the C-terminal Avi tag (BirA)).
T1 construct: also called full length human ANGPTL3; hANGPTL3
T1 sequence: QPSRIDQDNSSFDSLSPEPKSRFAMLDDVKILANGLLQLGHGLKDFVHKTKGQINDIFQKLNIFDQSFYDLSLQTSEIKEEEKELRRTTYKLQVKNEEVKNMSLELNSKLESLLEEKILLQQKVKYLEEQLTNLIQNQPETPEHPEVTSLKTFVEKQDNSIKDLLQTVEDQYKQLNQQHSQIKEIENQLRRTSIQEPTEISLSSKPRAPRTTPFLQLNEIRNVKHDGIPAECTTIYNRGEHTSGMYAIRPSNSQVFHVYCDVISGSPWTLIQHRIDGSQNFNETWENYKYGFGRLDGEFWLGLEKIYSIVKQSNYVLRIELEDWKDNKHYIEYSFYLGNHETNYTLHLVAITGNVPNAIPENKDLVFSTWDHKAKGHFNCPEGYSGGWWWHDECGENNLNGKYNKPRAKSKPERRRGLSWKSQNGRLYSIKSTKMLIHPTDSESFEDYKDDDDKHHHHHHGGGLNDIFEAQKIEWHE
Briefly: Octet (ForteBio) kinetics; average KD of the runs; no binding at 25 nM. (In general: BLI is a label-free optical method that tracks binding on a fibre tip over time.)

In test [2] the target is T1, Human ANGPTL3(17-460)-FLAG-His-Avi. Briefly: Octet (ForteBio) kinetics, biotinylated antigen on streptavidin sensor, IgG in solution; no binding at 25 nM.
For test [3], the target named is T2, Human ANGPTL4(26-406)-FLAG-His6-Avi (human, UniProt Q9BY76 24-406, biotin on the C-terminal Avi tag (BirA) where the protein is immobilised).
T2 construct: the text calls it 20 amino acids), then QP, ANGPTL4 26-406 and FLAG-His6-Avi; the signal peptide is left out here; also called full length human ANGPTL4; hANGPTL4
T2 sequence: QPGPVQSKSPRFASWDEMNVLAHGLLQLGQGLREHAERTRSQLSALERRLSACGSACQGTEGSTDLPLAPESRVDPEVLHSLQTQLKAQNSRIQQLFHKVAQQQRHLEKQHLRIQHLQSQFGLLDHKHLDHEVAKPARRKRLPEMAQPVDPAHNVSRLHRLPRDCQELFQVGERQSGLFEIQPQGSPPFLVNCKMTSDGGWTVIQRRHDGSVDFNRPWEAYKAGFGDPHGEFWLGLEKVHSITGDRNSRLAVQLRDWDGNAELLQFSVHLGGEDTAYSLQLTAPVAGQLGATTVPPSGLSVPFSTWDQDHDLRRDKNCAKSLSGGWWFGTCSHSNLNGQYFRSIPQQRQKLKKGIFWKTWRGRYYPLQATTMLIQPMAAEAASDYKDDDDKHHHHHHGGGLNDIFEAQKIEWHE
Briefly: Octet (ForteBio) kinetics, biotinylated antigen on streptavidin sensor, IgG in solution; slower than the limit of detection.

Test [4] has as its target T3, Human ANGPTL4(26-161)-FLAG-His6-Avi (human, biotin on the C-terminal Avi tag (BirA) where the protein is immobilised).
T3 construct: also called human ANGPTL4 N-terminal coiled coil domain; hANGPTL4-CCD
T3 chain: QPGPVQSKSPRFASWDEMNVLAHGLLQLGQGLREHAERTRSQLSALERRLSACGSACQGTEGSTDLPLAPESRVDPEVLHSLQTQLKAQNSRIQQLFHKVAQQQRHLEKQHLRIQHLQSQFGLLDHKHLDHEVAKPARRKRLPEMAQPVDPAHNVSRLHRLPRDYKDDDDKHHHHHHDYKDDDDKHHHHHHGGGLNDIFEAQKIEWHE
The test is described as above.

Test [5] addresses T4, Cynomolgus monkey ANGPTL4(26-406)-FLAG-His6-Avi (cynomolgus monkey, biotin on the C-terminal Avi tag (BirA) where the protein is immobilised).
T4 construct: also called Cyno ANGPTL4 (26-406)
T4 chain: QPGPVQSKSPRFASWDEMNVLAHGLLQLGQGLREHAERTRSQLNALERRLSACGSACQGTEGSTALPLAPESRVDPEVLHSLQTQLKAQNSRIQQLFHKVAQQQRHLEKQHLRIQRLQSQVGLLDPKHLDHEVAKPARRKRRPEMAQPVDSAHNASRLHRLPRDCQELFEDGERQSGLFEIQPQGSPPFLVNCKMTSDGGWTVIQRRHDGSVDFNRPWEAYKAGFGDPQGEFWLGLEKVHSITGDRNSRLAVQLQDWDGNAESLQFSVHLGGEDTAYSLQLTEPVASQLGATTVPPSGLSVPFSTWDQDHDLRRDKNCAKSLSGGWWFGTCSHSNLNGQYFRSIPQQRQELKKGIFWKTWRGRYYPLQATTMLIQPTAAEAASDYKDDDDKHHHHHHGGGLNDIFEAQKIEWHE
The description is as above.

The target of test [6] is T5, Mouse ANGPTL4(26-410)-FLAG-His6-Avi (mouse, UniProt Q9Z1P8 24-410, biotin on the C-terminal Avi tag (BirA) where the protein is immobilised).
T5 sequence: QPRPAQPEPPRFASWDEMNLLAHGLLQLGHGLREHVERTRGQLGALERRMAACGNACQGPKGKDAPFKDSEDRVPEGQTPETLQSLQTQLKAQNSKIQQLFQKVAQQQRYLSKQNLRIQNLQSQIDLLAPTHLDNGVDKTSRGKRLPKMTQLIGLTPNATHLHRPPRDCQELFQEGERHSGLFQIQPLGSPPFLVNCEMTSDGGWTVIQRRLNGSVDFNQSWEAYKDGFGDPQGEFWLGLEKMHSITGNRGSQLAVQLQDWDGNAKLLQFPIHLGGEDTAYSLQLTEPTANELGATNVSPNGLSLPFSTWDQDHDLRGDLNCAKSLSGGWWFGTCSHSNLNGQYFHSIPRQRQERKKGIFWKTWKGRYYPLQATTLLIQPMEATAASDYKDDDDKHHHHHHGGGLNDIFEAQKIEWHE
Briefly: Octet (ForteBio) kinetics, biotinylated antigen on streptavidin sensor, IgG in solution; Octet kinetics, mouse ANGPTL4 on the sensor, antibody up to 25 nM; run 1.

For test [7], the target named is T5, Mouse ANGPTL4(26-410)-FLAG-His6-Avi. Briefly: Octet (ForteBio) kinetics, biotinylated antigen on streptavidin sensor, IgG in solution; Octet kinetics, mouse ANGPTL4 on the sensor, antibody up to 25 nM; run 2.

B1: NEG276-LALA (antibody, human IgG1, kappa, L234A L235A)
heavy: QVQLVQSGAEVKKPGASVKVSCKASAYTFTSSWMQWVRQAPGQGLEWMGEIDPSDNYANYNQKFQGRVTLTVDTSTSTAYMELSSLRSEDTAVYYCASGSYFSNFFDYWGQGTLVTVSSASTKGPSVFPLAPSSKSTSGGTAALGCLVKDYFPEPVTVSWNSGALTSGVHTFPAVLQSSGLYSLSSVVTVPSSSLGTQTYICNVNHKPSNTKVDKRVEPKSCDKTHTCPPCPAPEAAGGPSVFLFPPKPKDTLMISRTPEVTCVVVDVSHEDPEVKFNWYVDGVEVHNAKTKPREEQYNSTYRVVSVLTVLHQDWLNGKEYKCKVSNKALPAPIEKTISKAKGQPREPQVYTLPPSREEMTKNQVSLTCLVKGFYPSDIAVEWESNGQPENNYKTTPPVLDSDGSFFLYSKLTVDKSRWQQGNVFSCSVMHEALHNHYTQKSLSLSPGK
light: EIVMTQSPATLSVSPGERATLSCKASQDIGSNLNWLQQKPGQAPRRLIYAVSNRGPGIPARFSGSRSGSEYTLTISSLQSEDFAVYYCLQYASSPWTFGQGTKVEIKRTVAAPSVFIFPPSDEQLKSGTASVVCLLNNFYPREAKVQWKVDNALQSGNSQESVTEQDSKDSTYSLSSTLTLSKADYEKHKVYACEVTHQGLSSPVTKSFNRGEC
Take B1: the figures for the Kd in test [1], in test [2] and in test [6] were above 6 nM, above 6 nM and 8.25 nM, respectively. The koff was 4.9e-07 s⁻¹ in test [3]; 3.1e-06 s⁻¹ in test [4]; 4.1e-06 s⁻¹ in test [5]; 0.0029 s⁻¹ in test [6]; 0.0018 s⁻¹ in test [7]. The association rate constant (kon) in test [6] came to 360000 M⁻¹ s⁻¹; in test [7], 430000 M⁻¹ s⁻¹.
